Laboratory results: CN102167743A (BAIMAIBO PHARMACEUTICAL CO LTD, dated 2011)

Molecular target: T1, EGFR (UniProt P00533 25-645, limits assumed)
T1 construct: also called 表皮生长因子受体
Assay: not described (summary of experimental results; compared with C225, 2F8 and 3C6)

binding result: binds
B1: 全人源抗EGFR抗体15H8 (antibody, human IgG1, kappa, V domains shown)
VH: EVQLVESGGGLVQPGGSLRLSCAASGFTFSSYAMHWVRQAPGKGLEYVSAISSNGGSTYYANSVKGRFTISRDNSKNTLYLQMGSLRAEDMAVYYCAREGYSSSWYHNWFDSWGQGTLVTVSS
VL: DIVMTQTPLSLPVTPGEPASISCRSSQSLLDSDDGNTYLDWYLQKPGQSPQLLIYTLSYRASGVPDRFSGSGSGTDFTLKISRVEAEDVGVYYCMQRIEFPSLYTFGQGTKLEIKR
notes: Whole human antibody expressed in CHO-K1 and purified on Protein A. The expression genes carry a signal peptide, printed only as nucleotides; also called 15H8抗体; 全人源抗体15H8
